Experimental findings from patent publication US20190330296A1 are described below.

In this assay the target is human GLP-1 receptor (human) (UniProt P43220). As to the kind of experiment: cell-based or functional assay.
Sequence of human GLP-1 receptor (human) (P43220 24-463): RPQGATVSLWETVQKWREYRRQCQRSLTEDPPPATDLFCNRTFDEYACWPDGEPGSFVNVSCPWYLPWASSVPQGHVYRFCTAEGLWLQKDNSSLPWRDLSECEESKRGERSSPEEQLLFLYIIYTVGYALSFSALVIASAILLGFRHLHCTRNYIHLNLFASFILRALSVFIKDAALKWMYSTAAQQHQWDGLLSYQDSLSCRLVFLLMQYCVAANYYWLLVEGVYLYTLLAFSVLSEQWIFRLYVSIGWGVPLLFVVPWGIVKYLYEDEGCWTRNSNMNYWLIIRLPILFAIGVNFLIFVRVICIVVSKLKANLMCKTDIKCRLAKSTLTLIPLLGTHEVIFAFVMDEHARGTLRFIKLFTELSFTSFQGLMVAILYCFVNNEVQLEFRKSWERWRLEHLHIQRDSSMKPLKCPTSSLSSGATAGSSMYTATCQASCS

As to Dulaglutide (Fc fusion), the Human GLP1R EC50 turned out to be 0.035 nM.
